In patent US20130058965A1, “INJECTABLE FORMULATIONS FOR PARENTERAL ADMINISTRATION” (MANNKIND CORPORATION, priority 2009, published 2013):

Target: HLA-A*0201 (Homo sapiens, UniProt P04439, D140Y/D185E/D98H/E176V/E277Q/G131W/G231S/I119V/I121R/I166T/I218V/L300P/L318F/N151K/N90K/P208A/P217A/Q86G/Q94H/R138H/R169H/T345S)
Experiment: NY-ESO-1 analogues, % peptide binding (Table 1)

Substance	% Peptide Binding
NY-ESO-1 157-165 (S157Y, L158(Nva), C165V) [SEQ ID NO:19]	80%
NY-ESO-1 157-165 (S157Y, C165V) (YLLMWITQV; Peptide analogue) [SEQ ID NO:13]	80%
